Experimental data reported in US10729634B2, “Sex hormone-binding globulin for use as a medicament” (FUNDACIÓ HOSPITAL UNIVERSITARI VALL D'HEBRON—INSTITUT DE …, priority 2013, dated 2020).

Legend:
HepG2 cells = assay: SHBG over-expression (pCMV-SHBG) in stably transfected HepG2 cells; type: cell-based, human; conditions: SHBG over-expressed (pCMV-SHBG) vs pCMV control
Description: In order to elucidate a possible mechanism of action of the SHBG, HepG2 cells (catalog no. HB-8065; ATCC) maintained in DMEM supplemented with 10% FBS and antibiotics) were stably transfected with a vector expressing SHBG (pCMV-SHBG). The vector pCMV-SHBG and the control (pCMV-empty) were the ones used and mentioned in several publications, being the first in Bocchinfuso W P et al. “Expression and differential glycosylation of human sex hormone-binding globulin by mammalian cell lines”, Mol Endocrinol-1991, Vol. No. 5(11)., pp. 1723-1729.
From all panels in FIG. 20 it can be deduced that SHBG regulates hepatocyte lipid content by modulating ACC levels in HepG2 cells. (a) SHBG mRNA levels were determined in relation to 18S RNA in pCMV and pCMV-SHBG stably transfected HepG2 cells (FIG. 20 a). SHBG protein accumulation in the medium was measured using an ELISA in pCMV and pCMV-SHBG stably transfected HepG2 cells (FIG. 20 b). ACC mRNA levels were determined in relation to 18S mRNA in pCMV and pCMV-SHBG stably transfected HepG2 cells (FIG. 20 c). SHBG mRNA levels were determined in relation to 18S RNA in shControl and shSHBG stably transfected HepG2 cells (FIG. 20 d). SHBG protein accumulation in the medium was measured using an ELISA in shControl and shSHBG stably transfected HepG2 cells (FIG. 20 e). […]

[1] = tested on: HepG2 hepatoblastoma cells; assay: Lipolysis assay (glycerol release) in HepG2 cells; type: cell-based, human; conditions: SHBG 2.5 nM, 10 nM and 50 nM, 16h incubation, vs vehicle control
Description: Cell culture experiments. Cell culture reagents were from Life Technologies Inc (Invitrogen SA). HepG2 hepatoblastoma cells (catalog no. HB-8065; ATCC) were maintained in DMEM supplemented with 10% foetal bovine serum (FBS) and antibiotics. For experiments, HepG2 cells were cultured to 60%-80% confluence, cells were washed and incubated with Lipolysis Assay Buffer containing vehicle (control—C), Isoproterenol (positive control—ISO, 3 μM) or SHBG at different final cell culture concentrations (2.5 nM, 10 nM and 50 nM). SHBG was from native human protein purified from healthy human serums (it included the amino acid sequence SEQ ID NO: 1). After 16h incubation, media was collected and glycerol concentration was assessed using a Glycerol Detection Kit (Zenbio).
The data are depicted in FIG. 1, wherein the bars indicate the levels of glycerol (Gly) for each assayed sample. Glycerol is a direct measure of the lipolysis level, since is the product obtained when triglycerides are decomposed chemically or enzymatically to glycerol and fatty acids.

[2] = tested on: human SHBG transgenic mice (shbg); assay: High lipid diet in human SHBG transgenic mice vs wild-type; type: in vivo; conditions: shbg vs WT mice
Description: Wild-type (WT) mice and shbg-mice as in Example 5 were fed with a high lipid diet (50% lipids, from which 46% pig butter and 4% soybean fat) for 8 weeks.
Weight increase along weeks was followed and plotted in FIG. 19 (A), wherein the weight in grams of mice is plotted per week after consumption of the fat diet.
Once mice were sacrificed, visceral adipose tissue (VAT in grams) was analyzed in both animal types. […] VAT was determined as follows: all visceral fat was removed from the animals and it was weighed in a precision balance.

B1: SHBG: native human protein purified from healthy human serums (included SEQ ID NO: 1); in mice and HepG2 expressed from human shbg transgene/vector (protein, listed as Homo sapiens)
chain: MESRGPLATSRLLLLLLLLLLRHTRQGWALRPVLPTQSAHDPPAVHLSNGPGQEPIAVMTFDLTKITKTSSSFEVRTWDPEGVIFYGDTNPKDDWFMLGLRDGRPEIQLHNHWAQLTVGAGPRLDDGRWHQVEVKMEGDSVLLEVDGEEVLRLRQVSGPLTSKRHPIMRIALGGLLFPASNLRLPLVPALDGCLRRDSWLDKQAEISASAPTSLRSCDVESNPGIFLPPGTQAEFNLRDIPQPHAEPWAFSLDLGLKQAAGSGHLLALGTPENPSWLSLHLQDQKVVLSSGSGPGLDLPLVLGLPLQLKLSMSRVVLSQGSKMKALALPPLGLAPLLNLWAKPQGRLFLGALPGEDSSTSFCLNGLWAQGQRLDVDQALNRSHEIWTHSCPQSPGNGTDASH
- ACC expression (HepG2 cells): the expression of ACC is reduced
- total TG content (HepG2 cells): the total TG is reduced
- lipolysis (glycerol concentration in medium) [1]: increased the lipolysis in HepG2 cells (in a dose-dependent manner)
- visceral adipose tissue (VAT) ([2]; high lipid diet (50% lipids) for 8 weeks): wild-type mice had a greater visceral adipose tissue than transgenic animals
- body weight along weeks ([2]; high lipid diet (50% lipids)): always a lower weight than wild-type mice
- obesity ([2]; high lipid diet (50% lipids)): Protects Against Obesity
